{"source": "patent US20240158474A1", "about": "(SINO BIOLOGICAL, published 2024)", "key": {"HPV33 VLP protein": {"target": "T1, HPV33 VLP protein (human papillomavirus type 33, UniProt P06416 1-499)", "T1 construct": "Complete VLP protein; no limits of the construct printed, whole entry named; also called HPV33L1", "T1 sequence": "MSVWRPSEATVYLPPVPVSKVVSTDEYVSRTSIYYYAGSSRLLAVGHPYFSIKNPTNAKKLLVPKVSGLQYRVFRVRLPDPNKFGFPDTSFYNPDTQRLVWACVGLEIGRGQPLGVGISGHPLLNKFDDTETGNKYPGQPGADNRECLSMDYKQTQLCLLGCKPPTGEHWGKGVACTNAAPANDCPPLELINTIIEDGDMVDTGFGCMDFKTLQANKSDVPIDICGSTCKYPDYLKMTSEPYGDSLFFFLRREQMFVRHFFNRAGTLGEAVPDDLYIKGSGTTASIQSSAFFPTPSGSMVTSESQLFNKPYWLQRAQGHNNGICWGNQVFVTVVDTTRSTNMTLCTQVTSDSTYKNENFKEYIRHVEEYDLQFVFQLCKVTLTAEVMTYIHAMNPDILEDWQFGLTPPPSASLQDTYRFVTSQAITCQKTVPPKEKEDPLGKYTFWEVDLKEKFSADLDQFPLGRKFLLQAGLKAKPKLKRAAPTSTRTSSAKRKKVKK", "test": "double-antibody sandwich ELISA on the mixture of 13 HPV VLPs"}, "HPV39 VLP protein": {"target": "HPV39 VLP protein (human papillomavirus type 39; human …, UniProt P24838 1-469)", "sequence (P24838 whole entry)": "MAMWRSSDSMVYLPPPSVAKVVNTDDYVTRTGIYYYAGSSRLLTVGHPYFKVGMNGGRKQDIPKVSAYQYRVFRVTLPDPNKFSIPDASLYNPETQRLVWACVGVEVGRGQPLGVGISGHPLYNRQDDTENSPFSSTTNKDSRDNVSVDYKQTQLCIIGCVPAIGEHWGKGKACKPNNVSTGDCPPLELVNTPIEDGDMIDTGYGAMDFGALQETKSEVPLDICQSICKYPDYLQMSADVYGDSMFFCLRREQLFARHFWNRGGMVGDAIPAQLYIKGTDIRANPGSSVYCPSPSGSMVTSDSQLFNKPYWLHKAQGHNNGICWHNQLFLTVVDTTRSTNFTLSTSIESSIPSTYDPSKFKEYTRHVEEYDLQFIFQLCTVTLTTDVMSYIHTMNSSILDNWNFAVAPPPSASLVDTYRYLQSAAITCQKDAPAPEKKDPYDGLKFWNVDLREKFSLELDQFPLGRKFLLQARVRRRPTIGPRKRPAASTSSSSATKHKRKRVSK", "test": "indirect ELISA, VLP coated at 2 µg/mL, antibody 10 ng/mL, HRP goat anti-rabbit Fc"}, "HPV51 VLP protein": {"target": "T2, HPV51 VLP protein (human papillomavirus type 51, UniProt P26536 1-474)", "T2 construct": "Complete VLP protein; no limits of the construct printed, whole entry named; also called HPV51L1", "T2 sequence": "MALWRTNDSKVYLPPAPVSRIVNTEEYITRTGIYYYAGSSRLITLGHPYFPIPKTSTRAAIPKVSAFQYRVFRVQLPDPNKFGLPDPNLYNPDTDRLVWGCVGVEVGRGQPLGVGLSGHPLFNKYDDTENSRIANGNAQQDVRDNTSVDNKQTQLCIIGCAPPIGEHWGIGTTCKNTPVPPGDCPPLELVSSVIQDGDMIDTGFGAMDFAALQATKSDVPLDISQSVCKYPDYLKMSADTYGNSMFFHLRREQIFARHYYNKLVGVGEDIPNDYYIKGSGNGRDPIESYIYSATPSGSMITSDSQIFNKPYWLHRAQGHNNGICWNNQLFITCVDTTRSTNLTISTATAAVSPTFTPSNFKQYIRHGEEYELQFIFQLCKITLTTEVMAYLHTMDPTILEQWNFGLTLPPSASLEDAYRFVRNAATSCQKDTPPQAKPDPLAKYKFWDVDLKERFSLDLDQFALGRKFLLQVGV", "test": "indirect ELISA, VLP coated at 2 µg/mL, antibody 10 ng/mL, HRP goat anti-rabbit Fc"}, "HPV58 VLP protein": {"target": "T3, HPV58 VLP protein (human papillomavirus type 58, UniProt P26535 27-499)", "T3 construct": "Complete VLP protein; no limits of the construct printed, whole entry named; also called P58SHELL", "T3 sequence": "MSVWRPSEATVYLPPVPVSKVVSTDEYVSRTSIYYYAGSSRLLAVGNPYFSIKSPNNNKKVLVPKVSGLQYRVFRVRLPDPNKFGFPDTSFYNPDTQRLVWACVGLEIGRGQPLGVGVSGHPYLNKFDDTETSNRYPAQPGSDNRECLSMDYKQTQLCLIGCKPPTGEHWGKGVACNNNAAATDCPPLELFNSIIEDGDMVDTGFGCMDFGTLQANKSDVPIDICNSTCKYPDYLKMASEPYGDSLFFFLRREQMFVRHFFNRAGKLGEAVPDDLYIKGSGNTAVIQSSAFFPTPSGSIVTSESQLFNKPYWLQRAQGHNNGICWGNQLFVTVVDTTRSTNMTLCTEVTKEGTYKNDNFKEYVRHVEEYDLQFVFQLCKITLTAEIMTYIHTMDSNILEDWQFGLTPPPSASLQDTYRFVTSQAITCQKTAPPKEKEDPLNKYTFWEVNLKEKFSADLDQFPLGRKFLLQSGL", "test": "indirect ELISA, VLP coated at 2 µg/mL, antibody 10 ng/mL, HRP goat anti-rabbit Fc"}, "HPV11 VLP protein": {"target": "T4, HPV11 VLP protein (human papillomavirus type 11; human …, UniProt P04012 1-470; P06416 474-499)", "T4 construct": "range 1-470;range 474-499; Complete VLP protein used as coating protein", "T4 sequence": "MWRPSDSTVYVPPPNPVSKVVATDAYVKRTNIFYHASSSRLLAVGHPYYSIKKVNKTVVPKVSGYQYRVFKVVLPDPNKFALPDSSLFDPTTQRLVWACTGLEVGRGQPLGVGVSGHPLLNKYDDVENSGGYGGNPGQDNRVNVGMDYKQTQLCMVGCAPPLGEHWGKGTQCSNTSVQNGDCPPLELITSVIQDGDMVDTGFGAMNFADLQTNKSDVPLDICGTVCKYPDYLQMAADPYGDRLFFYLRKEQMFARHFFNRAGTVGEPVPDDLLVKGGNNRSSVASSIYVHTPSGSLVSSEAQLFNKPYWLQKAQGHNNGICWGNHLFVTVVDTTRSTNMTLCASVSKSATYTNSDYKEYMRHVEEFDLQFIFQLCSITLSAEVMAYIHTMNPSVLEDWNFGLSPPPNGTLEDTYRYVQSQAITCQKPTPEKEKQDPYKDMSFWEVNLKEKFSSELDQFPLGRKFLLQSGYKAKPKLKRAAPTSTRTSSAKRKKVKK", "test": "indirect ELISA, VLP coated at 2 µg/mL, antibody 10 ng/mL, HRP goat anti-rabbit Fc"}}}
{"binder": "monoclonal antibody HPV6-R003 (antibody, V domains shown, here built from variable plus constant region so that the signal peptides are left out; In the sandwich ELISA the same antibody is used as coating antibody and, labelled with horseradish peroxidase, as detection antibody; also called anti-HPV6 L1 protein antibody) VH: QQQLEESGGGLVKPGGTLTLTCKASGIDLSNYYMCWVRQAPGKGLEWIGCIYTGSGRTYYASWAKGRFTISKASSTTVTLQMTSLTAADTATYFCARDYLGWRASNIWGPGTLVTVSS VL: ELVMTQTPSSVSAAVGGTVTINCQASQSVYSNNLVWYQQKPGQPPKLLIYGASTLASGVPSRFKGSGSGTQFTLTISDVVCDDAATYYCGGYVSDSTDGTAFGGGTEVVVKG", "values": [{"measurement": "binding result", "setting": "HPV33 VLP protein", "value": "no binding (tested: mixture 50 ng/mL, each subtype 1/13)"}, {"measurement": "OD450-blank", "setting": "HPV39 VLP protein", "value": 0.047, "unit": "OD450"}, {"measurement": "OD450-blank", "setting": "HPV51 VLP protein", "value": 0.041, "unit": "OD450"}, {"measurement": "OD450-blank", "setting": "HPV58 VLP protein", "value": 0.044, "unit": "OD450"}, {"measurement": "OD450-blank", "setting": "HPV11 VLP protein", "value": 0.053, "unit": "OD450"}]}
